Target: T1, BMC15 (uncultured bacterium (metagenome))
T1 chain: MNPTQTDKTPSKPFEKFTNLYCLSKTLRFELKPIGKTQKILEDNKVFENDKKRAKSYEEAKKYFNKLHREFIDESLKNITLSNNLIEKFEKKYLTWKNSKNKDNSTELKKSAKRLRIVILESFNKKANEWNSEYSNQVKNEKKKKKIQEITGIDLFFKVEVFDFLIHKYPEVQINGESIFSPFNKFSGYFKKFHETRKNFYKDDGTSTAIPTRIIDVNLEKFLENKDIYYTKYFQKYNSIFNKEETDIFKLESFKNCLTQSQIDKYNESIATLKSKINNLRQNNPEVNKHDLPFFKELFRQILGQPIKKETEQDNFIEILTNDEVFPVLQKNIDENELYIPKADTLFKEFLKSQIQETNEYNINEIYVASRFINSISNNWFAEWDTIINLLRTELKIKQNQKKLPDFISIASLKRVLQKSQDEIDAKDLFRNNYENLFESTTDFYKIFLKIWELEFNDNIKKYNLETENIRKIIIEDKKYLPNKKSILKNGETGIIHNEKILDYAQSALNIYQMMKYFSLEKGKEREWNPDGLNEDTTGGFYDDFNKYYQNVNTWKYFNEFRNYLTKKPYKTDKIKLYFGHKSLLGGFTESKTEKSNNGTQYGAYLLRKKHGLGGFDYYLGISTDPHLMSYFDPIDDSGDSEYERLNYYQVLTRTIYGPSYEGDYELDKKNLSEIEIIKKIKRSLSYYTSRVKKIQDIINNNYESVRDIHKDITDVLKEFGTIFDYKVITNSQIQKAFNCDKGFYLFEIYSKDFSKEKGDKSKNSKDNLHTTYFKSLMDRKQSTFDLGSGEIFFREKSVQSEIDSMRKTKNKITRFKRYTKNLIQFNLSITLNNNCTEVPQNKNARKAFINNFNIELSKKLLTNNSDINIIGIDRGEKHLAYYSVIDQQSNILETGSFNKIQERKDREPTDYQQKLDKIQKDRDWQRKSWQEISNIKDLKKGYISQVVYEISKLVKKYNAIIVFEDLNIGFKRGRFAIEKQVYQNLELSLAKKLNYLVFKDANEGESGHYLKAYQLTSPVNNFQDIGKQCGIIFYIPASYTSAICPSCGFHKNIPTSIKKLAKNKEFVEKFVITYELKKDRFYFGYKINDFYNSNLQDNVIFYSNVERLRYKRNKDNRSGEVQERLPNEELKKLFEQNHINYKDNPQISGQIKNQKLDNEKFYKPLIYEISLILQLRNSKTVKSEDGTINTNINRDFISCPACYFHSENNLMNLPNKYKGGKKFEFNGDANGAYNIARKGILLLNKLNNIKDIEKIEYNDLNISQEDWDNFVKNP
Assay: cell_activity; PAM not stated; E. coli depletion, 30 C
Protocol: Overnight grown pre-cultures were diluted into fresh 60 ml LB-Kanamycin (25 μg/ml) (Example 4) or LB-Kanamycin (25μg/ml)/Nourseothricin (50 μg/ml) medium (Example 5) to obtain an optical density at 600 nm (OD600) of 0.06. The inoculated medium was incubated at 30° C. on a horizontal shaker at 250 rpm until the culture reached an optical density at OD600 of 0.2. For induced BMC (NN) nuclease expression, 600 μl 20% L-(+)-arabinose (w/v) was added to the culture at a final concentration of 0.2% (v/v). The cultivation was continued until the culture reached an optical density at OD600 of 0.5. Subsequently 50 ml culture was transferred into one 50 ml conical tube and harvested by centrifugation at 4° C. for 5 min and 4000×g. Pelleted cells were resuspended in 50 ml ultrapure water (ice-cold) and centrifuged at 4° C. for 5 min and 4000×g.
This washing procedure was repeated twice. Washed cells were resuspended in 25 ml 10% (w/w) glycerin and re-centrifuged at 4° C. for 5 min and 4000×g. The pelleted cells were resuspended in 5 ml 10% (w/w) glycerin. After the final centrifugation step at 4° C. for 5 min and 4000×g, the cells were resuspended in 125 μl 10% (w/w) glycerin. Aliquots of 25 μl competent cells were stored at −80° C. until use. For the transformation procedure, aliquots of competent cells were thawed on ice and 50-100 ng plasmid DNA (CRISPR/gRNA-Ec) was added. Prepared cells were electroporated at 1800 V, 25 μF and 200 Ω in 1 mm gap size electroporation cuvettes, using the Bio-Rad Gene Pulser Xcell Electroporation System. Subsequently, 975 μL of NEB® 10-beta/Stable Outgrowth Medium was added immediately after the pulse to the transformed cells. Regeneration was done at 30° C. on a horizontal shaker at 250 rpm. Finally, 25-100 μl of the cell suspension was plated onto selective M9-Glucose agar plates supplemented with Kanamycin (25 μg/ml)/Ampicillin (100 μg/ml) (Example 4) or Kanamycin (25 μg/ml)/Ampicillin (100 μg/ml)/Nourseothrin (50 μg/ml) (Example 5). Growth of transformed E. coli cells on selective agar plates was screened for 48 h at 30° C.
As described above, each of the BMC01, BMC02, BMC03, BMC04, BMC05, BMC07, BMC08, BMC09, BMC10, BMC11, BMC12, BMC13, BMC14, or BMC15 nucleases was co-transformed into E. coli with a gRNA targeting the E. coli malQ gene to visualize a) the activity and b) the DNA targeting efficiency of the BMC nucleases.

B1: malQ gRNA (BMC stem-loop + 24 nt spacer) ; malQ protospacer (ssRNA ; dsDNA)
RNA: GAUUUCUACUAUUGUAGAUGUGGCGGUACGUUGAUGCAUCGCG
DNA 1: GTGGCGGTACGTTGATGCATCGCG
DNA 2: CGCGATGCATCAACGTACCGCCAC
Q: How did the activity turn out when B1 was run?
A: > 99.9 % colony reduction

From patent publication US20250277199, “NOVEL CRISPR-CAS NUCLEASES FROM METAGENOMES” (Brain Biotech AG, published 2025)
